Tests used:
Test in all cases: two-hybrid library CCNG1;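 also: natural log of median RNA to DNA barcode read ratio; higher means stronger binding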
O16-bN = molecular target: T1, O16-bN
T1 chain: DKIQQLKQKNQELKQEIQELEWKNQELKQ

O4-bN = molecular target: T2, O4-bN
T2 chain: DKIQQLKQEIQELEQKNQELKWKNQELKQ

O9-bN = molecular target: T3, O9-bN
T3 chain: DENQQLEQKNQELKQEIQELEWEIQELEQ

O8-bN = molecular target: T4, O8-bN
T4 chain: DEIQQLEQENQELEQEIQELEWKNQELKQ

O3-bN = molecular target: T5, O3-bN
T5 chain: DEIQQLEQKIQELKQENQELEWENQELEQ

O7-bN = molecular target: T6, O7-bN
T6 chain: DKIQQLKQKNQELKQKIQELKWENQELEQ

O5-bN = molecular target: T7, O5-bN
T7 chain: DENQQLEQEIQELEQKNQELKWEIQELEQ

O6-bN = molecular target: T8, O6-bN
T8 chain: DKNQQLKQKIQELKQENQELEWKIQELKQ

O15-bN = molecular target: T9, O15-bN
T9 chain: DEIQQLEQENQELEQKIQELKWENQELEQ

O2-bN = molecular target: T10, O2-bN
T10 chain: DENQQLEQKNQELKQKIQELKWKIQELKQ

4H454-bA = molecular target: T11, 4H454-bA
T11 chain: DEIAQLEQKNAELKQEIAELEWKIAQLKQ

4H780-bA = molecular target: T12, 4H780-bA
T12 chain: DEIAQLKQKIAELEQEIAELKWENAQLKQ

4H607-bA = molecular target: T13, 4H607-bA
T13 chain: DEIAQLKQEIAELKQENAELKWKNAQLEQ

4H575-bA = molecular target: T14, 4H575-bA
T14 chain: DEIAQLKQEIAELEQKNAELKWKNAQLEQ

4H908-bA = molecular target: T15, 4H908-bA
T15 chain: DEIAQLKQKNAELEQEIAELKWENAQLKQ

4H3427-bA = molecular target: T16, 4H3427-bA
T16 chain: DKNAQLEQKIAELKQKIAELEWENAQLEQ

4H967-bA = molecular target: T17, 4H967-bA
T17 chain: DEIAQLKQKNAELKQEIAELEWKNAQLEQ

4H687-bA = molecular target: T18, 4H687-bA
T18 chain: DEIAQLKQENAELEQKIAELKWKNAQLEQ

4H4001-bA = molecular target: T19, 4H4001-bA
T19 chain: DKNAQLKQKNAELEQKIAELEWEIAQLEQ

4H683-bA = molecular target: T20, 4H683-bA
T20 chain: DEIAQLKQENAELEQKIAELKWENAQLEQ

4H754-bA = molecular target: T21, 4H754-bA; conditions: mean of both orientations
T21 chain: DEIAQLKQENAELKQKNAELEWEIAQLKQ

4H568-bA = molecular target: T22, 4H568-bA
T22 chain: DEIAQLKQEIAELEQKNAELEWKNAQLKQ

4H855-bA = molecular target: T23, 4H855-bA
T23 chain: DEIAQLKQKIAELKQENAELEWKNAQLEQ

4H72-bA = molecular target: T24, 4H72-bA
T24 chain: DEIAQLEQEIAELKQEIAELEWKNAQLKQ

4H457-bA = molecular target: T25, 4H457-bA
T25 chain: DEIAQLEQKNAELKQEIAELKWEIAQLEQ

4H797-bA = molecular target: T26, 4H797-bA
T26 chain: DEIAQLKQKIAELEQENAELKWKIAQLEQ

4H346-bA = molecular target: T27, 4H346-bA
T27 chain: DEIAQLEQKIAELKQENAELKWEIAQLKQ

4H3926-bA = molecular target: T28, 4H3926-bA
T28 chain: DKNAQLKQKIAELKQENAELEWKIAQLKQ

4H3782-bA = molecular target: T29, 4H3782-bA
T29 chain: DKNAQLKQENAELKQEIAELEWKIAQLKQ

4H968-bA = molecular target: T30, 4H968-bA
T30 chain: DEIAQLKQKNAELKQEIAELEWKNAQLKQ

P7bH1 = molecular target: T31, P7bH1
T31 chain: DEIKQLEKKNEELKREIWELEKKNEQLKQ

4H3855-bA = molecular target: T32, 4H3855-bA
T32 chain: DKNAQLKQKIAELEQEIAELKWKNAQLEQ

4H918-bA = molecular target: T33, 4H918-bA
T33 chain: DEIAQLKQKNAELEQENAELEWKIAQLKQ

4H953-bA = molecular target: T34, 4H953-bA
T34 chain: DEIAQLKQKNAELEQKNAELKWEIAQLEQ

4H4073-bA = molecular target: T35, 4H4073-bA
T35 chain: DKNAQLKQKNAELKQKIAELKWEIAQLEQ

4H883-bA = molecular target: T36, 4H883-bA
T36 chain: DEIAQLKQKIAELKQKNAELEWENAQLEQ

4H717-bA = molecular target: T37, 4H717-bA
T37 chain: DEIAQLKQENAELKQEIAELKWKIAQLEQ

Q: DKNQQLKQKIQELKQKNQELKWEIQELEQ [O13-bN] was tested. Which interaction score (O16-bN) did it give?
A: -1.23

Q: And the interaction score (O4-bN)?
A: -2.32

Q: What about the interaction score (O9-bN) of the same binder?
A: -1.61

Q: What about the interaction score (O8-bN) of the same binder?
A: -1.07

Q: What about the interaction score (O3-bN) of the same binder?
A: -0.827

Q: What about the interaction score (O7-bN) of the same binder?
A: -1.39

Q: What about the interaction score (O5-bN) of the same binder?
A: -2.42

Q: What about the interaction score (O6-bN) of the same binder?
A: -0.733

Q: What about the interaction score (O15-bN) of the same binder?
A: -0.801

Q: What about the interaction score (O2-bN) of the same binder?
A: -1.79

Q: How did the interaction score (4H454-bA) turn out when DKNAQLEQKIAELKQKIAELEWENAQLEQ [4H3427-bA] was run?
A: -0.617

Q: What about the interaction score (4H780-bA) of the same binder?
A: -1.09

Q: What about the interaction score (4H607-bA) of the same binder?
A: -0.868

Q: What about the interaction score (4H575-bA) of the same binder?
A: 0.0418

Q: What about the interaction score (4H908-bA) of the same binder?
A: -0.823

Q: What about the interaction score (4H3427-bA) of the same binder?
A: 0.0593

Q: What about the interaction score (4H967-bA) of the same binder?
A: -1.02

Q: What about the interaction score (4H687-bA) of the same binder?
A: -1.79

Q: What about the interaction score (4H4001-bA) of the same binder?
A: -0.314

Q: What about the interaction score (4H683-bA) of the same binder?
A: -0.996

Q: And the interaction score (4H754-bA)?
A: -0.767

Q: What about the interaction score (4H568-bA) of the same binder?
A: 0.738

Q: What about the interaction score (4H855-bA) of the same binder?
A: -1.16

Q: And the interaction score (4H72-bA)?
A: 0.449

Q: And the interaction score (4H457-bA)?
A: -1.11

Q: What about the interaction score (4H797-bA) of the same binder?
A: -0.827

Q: And the interaction score (4H346-bA)?
A: -1.15

Q: What about the interaction score (4H3926-bA) of the same binder?
A: -0.817

Q: What about the interaction score (4H3782-bA) of the same binder?
A: -0.499

Q: And the interaction score (4H968-bA)?
A: -0.904

Q: What about the interaction score (P7bH1) of the same binder?
A: -0.632

Q: What about the interaction score (4H3855-bA) of the same binder?
A: -0.947

Q: What about the interaction score (4H918-bA) of the same binder?
A: -0.926

Q: And the interaction score (O15-bN)?
A: -0.0232

Q: And the interaction score (4H953-bA)?
A: -1.25

Q: What about the interaction score (4H4073-bA) of the same binder?
A: 0.792

Q: What about the interaction score (4H883-bA) of the same binder?
A: -0.625

Q: And the interaction score (4H717-bA)?
A: -1.4

— article PMC10397247
